# Test: label from the status in PepcDB records
sequence,measurement,value
MTPGTGSALGLLAAAVDAKAVAEIGTGCGVSGIHLLHGMRPDGVLTTVDPEPEHQQFARHAFRAAGFASNRARFIPGRALDVLPRLADAGYDLVFCDGDRLEYLDYLAESLRLLRPGGLVAFEGVFGAGRTIDSGPQPTEVLRVRELLRAVRESQELVPSLLPVGDGLLCAVKR,protein production,failed
MSHDRSVNVSHDAVIAKPERGTMLQSFSPRSHGSKGYSLPQDSEENRGSVGQSAGQSSTSVVDQVRSPADDAGVTSSSTICPAPVCRQFWKAGSYNDELSSKSQQPNGKNYLHVHPMFLHSNATSHKWAFGAVAELLDNAVDEIQNGATFVIVDKTTNPRDGATALLIQDDGGGMDPQAMRHCMGFGFSDKKSDSAIGRYGNGFKTSTMRLGADVIVFSRHSKNQTLTQSIGLLSYTYLTRTGHDRIVVPILDYEFNASAGEFKTLQDREHFISSLSILLEWSPFSTEAELLQQFDDVGPHGTKVIIYNMWLNSDAKLELDFDSVAEDILIEGSIKKTGSKIVNDHIASRFSYSLRVYLSILYLRIPETFKIILRGKVVEHHNVADDLMHPQYILYKPQAAGSEEALVVTTIGFLKEAPKVNLHGFCVYHKNRLIMPFWQVINYSSSRGRGVVGVLEANFVEPTHNKQDFEKTVLLQKLENRLKEMTVEYWSCHCVLIGYQVNKKPRLQIPQKVQPAGRQALSPPPGFQAVFPQGNTTSLPRVSTQPVLLEKRKEHPDSVASAALKRKVGNDDFTVPGHIRVEQFIHGSASQSQDIETVKLMEENKKLRAKCLDRKVRSQNLEVKAMNLRSELENYKSEYERLMVELQALDLVKDEHRRNVNT,protein production,failed
MSVIIAANNLCLQYQQNEPVIKHANLRIKRKDFVFISGPSGSGKSTLLRSFYGDLKLFSGKLEVCNINMNNASKATILDLRKNIGVVFQDYKLIQDYTIEQNIKLPMVICGIKKEECHLQLEKLLGHIDLRHKANRYPKELSGGEQQRVAMARAMANCPELILADEPTGNLDDYSSDKIWSLLRGMNTQLNATIVVVTHKFPKNFSAYHRKFYIEDGEVYEYS,protein production,failed
MTIQDYMLETPVRMREIISNADSLFNEVKRTNLKKIIITGSGTSYHSGVQVQPYLQNLLDIDVVKMYPFMITEDTFKFDNENTLVVGVSQGGSSYSTYNAMKLAEDKGCKIASMAGCKNALIDEISDYILTVNCGEEKSGAKTKGYYCTKLNLMLLGLQIAREKGIISSEKYNEEINKILDAINRFEAVYKLSKQWIERNKEKLVNSKEIRIIGHSDIYGDTLEAALKLLETMRIPVTGYEFEEFIHGIYNAINSDSTIFILDTGKEPRVTKMIDVLSGWTENVFAIGRDVTENDKNLKIDITDNPYYQTFNFIVPIQLICGEIPTLRGVDPSVPKDTRFHMKLGSKKLNK,protein production,not failed
SPARPFTVRAPASSANLGPGFDSLGLSVPLYTTLRVTPQDKAEVVPLGTELADTPADESNYVYRAMTLAAKRAGRTLPPARVEIETEVPLARGLGSSAAALVAGVVAGNELLGRPLDDETVLDVTAREEGHPDNVAPALFGGIVVATLDKLGTHY,protein production,failed
MAFSVAYDLIPNKLIKDIDEMNQWLHDKINRAVYLVGFATQQSDYEYKLYELFKALDELEERLKKQLFLFGNQLTESDLYLLATLERFDNIYFCLFKCSLKRIADYPALFRYHNQLRGMESLASTYQPVLTKEHYFMSTMHVLGLEHHHHHH,protein production,failed
MFIERMTNLAQGLVVAAVHAGSIAEEMEIECGDQILAIDGQEIGDIIDFQYLTAEDEFTLLLEKAGGELWELEIERSYGEELGLEVQAVSSHGLKLCRNNCIFCFVAQMPPGMRASLYDKDDDYRLSLTQGSFITLSNLDEDEFERILKFHFSPLYISVHAWDAEARVRLMKNPRAGDLSSQLKRLAGAGIQIHSQIVLVPGYNDGEVLEQTVRELGNLHPSVQSIAVVPVGLTKHRANLPDLRPFTPEEAWSILAKGEMWQKEYRRKTGRSLVYFSDEFYASAGRDYPSIEIYDDFAQLENGVGMASKFRQEFDYALQSLPPAIPQRKVHLITGVSAAPFFEDLLKKLTPIEGLTVQRHTIINSFFGPTVTVAGLLTAQDIAGQIGNIKGEIFLIPRVMLKADEEVFLDDRSVEWLAEELQGIPLVVENQGRAFLEAVTGLDLEGEDCE,protein production,failed
MRSKFVLFMLMSLLTGSLMANSEAQIYGYVEKATLIDQNLTLSAKLDTGAKSASLHAVNITEIEKKGIPYLRFTVPTKTGDYSFEGEYVGKVKIKVRSSETNPGLLRTTPIKRPVVLLNIKLGDKVRTIKVNLTNRKRFLYPLLLGRDAIIDFNGAVDPALTFTTKSKSPVNNEK,protein production,failed
IQVDYEDVKLDGYFFSPSWIKGPKPTILALNGGDEWSIENYFWLGPAFISCGYNFMVYDQPGTGLSMYEKGKGRRADSEAFHSRAIDFLLTRPEVDPNKIIVHGESFAAYDSLRFASFDHRIAAVISDGGTHAFDWEAMLKWMPPSLAGHGMRILGAKSLDDFAENPRFAYNLEGVLHQIECPLLVMHGAEEILVQPNPLTQALKNYEQAGSKNKTFFPIEDRRIGGLEHCQVDNINVLHEVVLNWL,protein production,not failed
MNNINTIIQREYMIRVRKKSFLVMTILMPILFVGLVSLPIVLAQLGGDMKTIAIADRTGEYEQLFKENDEFRFVHAEKTAEEYRKMGADKSGIDAVLEIRQDLLEDPNAVAIYGYKQLPASVSNHISRILSDYLSDKKIASYNIPDIKQILADSKIELSVHTYKWSEDGTNERTSGELASGISMMMMVVIFFLIMTLAAMVQAGVLEEKKNRIMEVMVSSTRPFNLMMGKIIGIGLVGLTQLICWGVLTVLLLTVAQIAFLGNLYSPEALSRMQASDITGMASSMNAEDFAEMKEVMNIIGGINFGELFVMFLIFFIGGYLLYSSIFAVIGSMVSNDEDTSQFMMPVMILLMFGFYAAYGSMNNPEGSLAFWCSLIPFTSPLVMMVRLPYDVPLWQELLSIGLLYGCFVLMTWIGAKIYRVGVLMYGKKPSIKEIIRWINYK,protein production,failed
MRAVIQRVKKSWVEVDGKVVGSINEGLNVFLGVRKGDTEEDIEKLVNKILNLRIFEDERGKFQYSVLDIKGEILVVSQFTLYANVKKGRRPSFEEAEEPKRAKELYEKFVDKIKESGLKVETGIFGAMMDVFIENWGPVTIIIDSREI,protein production,not failed
MDPSSVIWIFFVFLFFYPQVLFRYRLLQRYKFIKQFEAVRKTRAIVMIHRQEQLALFGIPLYKYITIEDSEEILRAIRMTPEDMPIDLILHTPGGLVLASEQIAIALKEHKAKTTVIIPHYAMSGGSLIALAADEIIIDKNAVMGPVDPQIGQYPAASIINAINTKYTDELDDETLILGDIARKAIVQVKEFVYDILKDKMGEEKAKYLSETLSTGKWTHDYPLTINKLKDLGIEVNTELPNIVYELFDLYRQPVNQRPSVQYVPVPYKRGTK,protein production,failed
MMPLILSNTGEEVVIKKISGSDKTRTFLNSIGFVVGTNVKIVSKIDGNLIIDVKDTRVALDKKMASRIIILEHHHHHH,protein production,failed
MCDQTKHSKCCPAKGNQCCPPQQNQCCQSKGNQCCPPKQNQCCQPKGSQCCPPKHNHCCQPKPPCCIQARCCGLETKPEVSPLNMESEPNSPQTQDKGCQTQQQPHSPQNESRPSK,protein production,failed
LDDLSEFVDQVPLLDHHCHFLIDGKVPNRDDRLAQVSTEADKDYPLADTKNRLAYHGFLALAKEFALDANNPLAAMNDPGYATYNHRIFGHFHFKELLIDTGFVPDDPILDLDQTAELVGIPVKAIYRLETHAEDFMLEHDNFAAWWQAFSNDVKQAKAHGFVGFKSIAAYRVGLHLEPVNVIEAAAGFDTWKHSGEKRLTSKPLIDYMLYHVAPFIIAQDMPLQFHVGYGDADTDMYLGNPLLMRDYLKAFTKKGLKVVLLHCYPYHREAGYLASVFPNLYFDISLLDNLGPSGASRVFNEAVELAPYTRILFASDASTYPEMYGLAARQFKQALVAHFNQLPFVDLAQKKAWINAICWQTSAKLYHQERELRV,protein production,not failed
MTTDIDLEQGGAFGYHRRSLDGSDVSVYYSDGEDVMSCYSYFYSTTGGSYEYEGDQSRKVSSVMSPSSSEIDDDDATAPPEKDCRICHLGVETSGGGAIELGCSCKDDLAVAHRQCAETWFKIKGDKTCEICQSVARNVGGANEMVGSTMEERELRNGEETAAGEGGGATVVENRWQPQRVVNLVLACMVFGFFISWIFHFHVSSSS,protein production,failed
YRATKLWNEVTTSFRAGMPLRKHRQHFKKYGNCFTAGEAVDWLYDLLRNNSNFGPEVTRQQTIQLLRKFLKNHVIEDIKGRWGSENVDDNNQLFRFPA,protein production,not failed

# — a protein production outcome set (Wang et al. 2014)
